Results published in US20020165123A1 (published 2002).
Bridges are numbered along the chain shown (N, C = ends). Where no end group is shown, it is not given here.

Each binder was assayed against T1, CXC chemokine receptor 4 (CXCR4) (UniProt P61073 1-352, limits assumed) (assay: competition against 4 nM 125I-SDF-1 on CEM cells (FIG. 2B)).
T1 construct: whole, on cells; Endogenous receptor on CEM and THP-1 cells; also called SDF-1 receptor; fusin
Protocol: SDF-1 and the indicated analogs (competing ligands, described in Examples) were added at the concentrations illustrated in the presence of 4 nM ¹²⁵I-SDF-1. CEM cells were assessed for ¹²⁵I-SDF-1 binding following 2 hr of incubation. The results are expressed as percentages of the maximal specific binding that was determined without competing ligand, and are the mean of three independent experiments.
A competitive dose response for binding to the SDF-1 receptor by native SDF-1 and the CXCR4 agonists against ¹²⁵I-SDF-1 is shown in FIGS. 2A and 2B respectively. A concentration-dependent inhibition of ¹²⁵I-SDF-1 is illustrated in FIG. 2A, indicating the affinity of SDF-1 for the receptor. […] SDF-1 and the indicated analogs (competing ligands) were added at the concentrations illustrated in the presence of 4 nM ¹²⁵I-SDF-1. CEM cells were assessed for ¹²⁵I-SDF-1 binding following 2 hr of incubation. The results are expressed as percentages of the maximal specific binding that was determined without competing ligand, and are the mean of three independent experiments. The inhibition of ¹²⁵I-SDF-1 by SDF-1 and the SDF-1 analogs is indicative of CXCR4 receptor binding. The compounds illustrated in the figure are as follows: SDF-1(1-14)-(G)₄-SDF-1(55-67)-K20/E24-cyclic amide (CTCE0021), SDF-1(1-14)-(G)₄-SDF-1(55-67)-E24/K28-cyclic amide (CTCE0022), SDF-1(1-9)₂-C9/C9-cysteine dimer (CTCE9901), SDF-1(1-17) (CTCE9902), SDF-1(1-8)₂-lysine bridge dimer (CTCE9904) and SDF-1(1-14)-(G)₄-SDF-1(55-67) amide (CTCE0017).

T1 sequence (P61073 whole entry): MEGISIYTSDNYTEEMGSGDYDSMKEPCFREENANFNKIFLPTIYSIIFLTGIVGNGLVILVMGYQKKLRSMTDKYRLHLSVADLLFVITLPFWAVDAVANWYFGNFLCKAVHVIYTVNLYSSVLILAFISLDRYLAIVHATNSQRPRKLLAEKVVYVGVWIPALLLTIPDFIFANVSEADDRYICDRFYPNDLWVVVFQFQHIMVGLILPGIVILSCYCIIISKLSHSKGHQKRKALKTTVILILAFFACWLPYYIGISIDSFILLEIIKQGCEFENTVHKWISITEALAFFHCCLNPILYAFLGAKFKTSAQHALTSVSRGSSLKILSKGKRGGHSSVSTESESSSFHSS

| binding result | Binder |
| --- | --- |
| binds | KPVSLSYRCPCRFFESH (Linear peptide, free acid; also called CTCE9902) [SDF-1(1-17)] |
| binds | KPVSLSYRK-NH2 (also: dimer: two chains' Arg8 amide-linked to one bridging lysine (alpha and epsilon amino groups), Two SDF-1(1-8) chains joined through one lysine amide; also called CTCE9904) [SDF-1(1-8)2-lysine bridge dimer] |
| binds | KPVSLSYRC (also: homodimer via disulphide between Cys9 of the two chains, Homodimer of SDF-1(1-9), with free acid C-termini; also called CTCE9901) [SDF-1(1-9)2-C9/C9-cysteine dimer] |

These binders were tested against T1, CXC chemokine receptor 4 (CXCR4) (assay: cell-based or functional assay).

| EC50 of [Ca2+]i mobilization, fura-2,AM loaded THP-1 cells [nM] | Binder |
| --- | --- |
| 106 | KPVSLSYRCPCRFFGGGGLKWIQEYLEKALN-NH2 (lactam 24-28; cysteine pairing not given here) [SDF-1(1-14)-(G)4-SDF-1(55-67)-E24/K28-cyclic amide] |
| 148 | KPVSLSYRCPCRFFGGGGLKWIQEYLEKALN-NH2 (lactam 20-24; cysteine pairing not given here) [SDF-1(1-14)-(G)4-SDF-1(55-67)-K20/E24-cyclic amide] |
| 188 | KPVSLSYRCPCRFFGGGGLKWIQEYLEKALN-OH (cysteine pairing not given here) [SDF-1(1-14)-(G)4-SDF-1(55-67) acid] |
